Molecular target: pooled human IgG

Protein	Enzyme Activity Endpoint Assay (purified): Fab′2	Enzyme Activity Endpoint Assay (purified): Fc	Enzyme Activity Endpoint Assay (purified): IgG	Enzyme Activity Endpoint Assay (purified): scIgG
PRT-666 (protein) MQITSVWTKGVTPPTPEQFRNNNEDVFHAPYLANQGWYDITKTFNGKDDLLCGAATAGNMLHWWFDQNKTEIEAYLKKHPEKQKIIFNNQELFDLKKAIDTKDSQTNSQLFNYFRDKAFPNLSARQLGVMPDLVLDMFINGYYLNVTKTQSTDVNRPYQDKDKRGGIFDAVFTRGDQTTLLTSRHDLKNKGLNEISDLIKQELTEGKALALSHTYANVSINHVINLWGADFNAEGNLEAIYVTDSDSNASIGMKKYFVGVNASGKVAISAKKIEGENIGAQVLGLFTLSSGKDIWQKLSLEHHHHHH	897 ng/µL	132 ng/µL	66 ng/µL	0 ng/µL
PRT-668 (protein) MQITSVWTKGVTPLTPEQFRYNNYDVFHAPYLAGQGWYDITKAFDGKDNLLCGAATAGNMLHWWFDQNKTEIEAYLSKYPEKQKIIFNNQELFDLRKAINTKDSQTNSELFNYFRDKAFPNLSARQLGVMPDLVLDMFINGYYLNVFKTQSTDVNRPYQDKDKRGGIFDAVFNRGDQTKLLTARHDLKNKGLNDISTLIKQELSSGRALALSHTTANVSISHVINLWGADFNAEGNLEAIYVTDSDDDSNIGMKKYKVGINASGHVAISAKKIEGENIGAQVLGLFTLSSGKDIWQKLSLEHHHHHH	563 ng/µL	0 ng/µL	1070 ng/µL	14 ng/µL
PRT-622 (protein) MQITSVWTKGVTPLTPEQFRYNNEDVIHAPYLAHQGWYDITKAFDGKDNLLCGAATAGNMLHWWFDQNKTEIEAYLSKHPEKQKIIFNNQELFDLKAAIDTKDSQTNSQLFNYFRDKAFPNLSARQLGVMPDLVLDMFINGYYLNVFKTQSTDVNRPYQDKDKRGGIFDAVFTRGDQTTLLTARHDLKNKTLKEISDIIKQELQSGRALALSHTYANVSISHVINLWGADFNSEGNLIAIYVTDSDANASIGMKKYFVGINAHGHVAISAKKIEGENIGAQVLGLFTLSSGKDIWQKLSLEHHHHHH	823 ng/µL	423 ng/µL	0 ng/µL	0 ng/µL
PRT-65 (protein) MANQEIRYSEVTPYHVTSVWTKGVTPPANFTQGEDVFHAPYVANQGWYDITKTFNGKDDLLCGAATAGNMLHWWFDQNKDQIKRYLEEHPEKQKINFNGEQMFDVKEAIDTKNHQLDSKLFEYFKEKAFPYLSTKHLGVFPDLVIDMFINGYRLSLTNHGPTPVKEGSKDPRGGIFDAVFTRGDQSKLLTSRHDFKEKNLKEISDLIKKELTEGKALGLSHTYANVRINHVINLWGADFDSNGNLKAIYVTDSDSNASIGMKKYFVGVNSAGKVAISAKEIKEDNIGAQVLGLFTLSTGQDSWNQTN	35 ng/µL	100 ng/µL	26 ng/µL	34 ng/µL
PRT-550 (protein) MANQEIRYSEETPKTITSIWTKGVTPPTDFIKNEDVLHAPYIANQGWYDITKTFNGKDDLLCGAATAGNMLHWWFDQNKEEIENYLKKHPEKQKINFNGEQMFDVKEAIDTKDSQTDSKLFEYFKDKAFPYLSTKHLGVFPDHVIDMFINGYRLSLTNHGPTPVKRGTKDPRGGIFDAVFTRGDQSKLLTARHDFKEKTLNEISDLIKQELTEGKALGLSHTYANVRINHVINLWGADFNSEGNLEAIYVTDSDSNASIGMKKYYVGVNAAGKVAISAKEIEGDNIGAQVLGLFTLSTGQDIWNQTNLEHHHHHH	891 ng/µL	389 ng/µL	0 ng/µL	0 ng/µL
PRT-627 (protein) MQITSVWTKGVTPLTPEQFRYNNEDVIHAPYLAHQGWYDITKAFDGKDNLLCGAATAGNMLHWWFDQNKEEIEAYLKKYGETQKIIFNNQELFDLKAAIDTKDSQTNSQLFNYFRDKAFPNLSARQLGVMPDLVLDMFINGYYLNVFKTQSTDVNRPYQDKDKRGGIFDAVFTRGDQTTLLTARHDLKNKGLNDISTIIKQELTEGRALALSHTYANVSISHVINLWGADFNAEGNLEAIYVTDSDANASIGMKKYFVGINAHGHVAISAKKIEGENIGAQVLGLFTLSSGKDIWQKLSLEHHHHHH	767 ng/µL	415 ng/µL	124 ng/µL	187 ng/µL
PRT-639 (protein) MQITSVWTKGVTPLTPEQFRYNNEDVIHAPYLAHQGWYDITKTFNGKDDLLCGAATAGNMLHWWFDQNKTEIEAYLSKHPEKQKIIFNNQELFDLKAAIDTKDSQTNSQLFNYFRDKAFPNLSARQLGVMPDLVLDMFINGYYLNVFKTQSTDVNRPYQDKDKRGGIFDAVFTRGDQTTLLTARHDLKNKGLNDISTIIKQELTEGRALALSHTYANVSISHVINLWGADFNAEGNLEAIYVTDSDADASIGMKKYFVGINAHGHVAISAKKIEGENIGAQVLGLFTLSSGKDIWQKLSLEHHHHHH	788 ng/µL	450 ng/µL	0 ng/µL	0 ng/µL
PRT-606 (protein) MQITSVWTKGVTPLTPEQFRYNNEDVIHAPYLAHQGWYDITKAFDGKDNLLCGAATAGNMLHWWFDQNKTEIEAYLSKYPDKQKIIFNNQELFDLKAAIDTKDSQTNSQLFNYFRDKAFPNLSARQLGVMPDLVLDMFINGYYLNVFKTQSTDVNRPYQDKDKRGGIFDAVFTRGDQTTLLTARHDLKNKGLNDISTIIKQELTEGRALALSHTYANVSISHVINLWGADFNAEGNLEAIYVTDSDANASIGMKKYFVGINAHGHVAISAKKIEGENIGAQVLGLFTLSSGKEIWQKLSLEHHHHHH	737 ng/µL	406 ng/µL	0 ng/µL	0 ng/µL
PRT-612 (protein) MQITSVWTKGVTPLTPEQFRYNNEDVIHAPYLAHQGWYDITKAFDGKDNLLCGAATAGNMLHWWFDQNKTEIEAYLSKHPEKQKIIFNNQELFDLRAAINSKDSQTNSQLFNYFRDKAFPNLSARQLGVMPDLVLDMFINGYYLNVFKTQSTDVNRPYQDKDKRGGIFDAVFTRGDQTTLLTARHDLKNKGLNDISTIIKQELTEGRALALSHTYANVSISHVINLWGADFNAEGNLEAIYVTDSDANASIGMKKYFVGINAHGHVAISAKKIEGENIGAQVLGLFTLSSGKDIWQKLSLEHHHHHH	986 ng/µL	533 ng/µL	0 ng/µL	0 ng/µL
PRT-655 (protein) MQITSVWTKGVTPLTPEQFRYNNEDVIHAPYLAHQGWYDITKAFDGKDNLLCGAATAGNMLHWWFDQNKTEIEAYLSKHPEKQKIIFNNQELFDLKAAIDTKDSQTNSQLFNYFRDKAFPNLSARQLGVMPDLVLDMFINGYYLNVFKTQSTDVNRPYQDKDKRGGIFDAVFTRGDQTTLLTARHDLKNKGLNDISTIIKQELTEGRALALSHKTGNGGSSHVINLWGADFNAEGNLEAIYVTDSDANASIGMKKYFVGINAHGHVAISAKKIEGEDVGAQVLGLFTLSSGKDIWQKLSLEHHHHHH	471 ng/µL	0 ng/µL	1380 ng/µL	15 ng/µL

From US20250027068
